From publication PMC3168981 (Nature structural & molecular biology, 2011)

Target: T1, AlexaFluor488-labeled human PLCβ3-Δ892 R872A L876A L879A triple mutant (human, UniProt Q01970 10-891, R872A | L876A | L879A)
T1 sequence: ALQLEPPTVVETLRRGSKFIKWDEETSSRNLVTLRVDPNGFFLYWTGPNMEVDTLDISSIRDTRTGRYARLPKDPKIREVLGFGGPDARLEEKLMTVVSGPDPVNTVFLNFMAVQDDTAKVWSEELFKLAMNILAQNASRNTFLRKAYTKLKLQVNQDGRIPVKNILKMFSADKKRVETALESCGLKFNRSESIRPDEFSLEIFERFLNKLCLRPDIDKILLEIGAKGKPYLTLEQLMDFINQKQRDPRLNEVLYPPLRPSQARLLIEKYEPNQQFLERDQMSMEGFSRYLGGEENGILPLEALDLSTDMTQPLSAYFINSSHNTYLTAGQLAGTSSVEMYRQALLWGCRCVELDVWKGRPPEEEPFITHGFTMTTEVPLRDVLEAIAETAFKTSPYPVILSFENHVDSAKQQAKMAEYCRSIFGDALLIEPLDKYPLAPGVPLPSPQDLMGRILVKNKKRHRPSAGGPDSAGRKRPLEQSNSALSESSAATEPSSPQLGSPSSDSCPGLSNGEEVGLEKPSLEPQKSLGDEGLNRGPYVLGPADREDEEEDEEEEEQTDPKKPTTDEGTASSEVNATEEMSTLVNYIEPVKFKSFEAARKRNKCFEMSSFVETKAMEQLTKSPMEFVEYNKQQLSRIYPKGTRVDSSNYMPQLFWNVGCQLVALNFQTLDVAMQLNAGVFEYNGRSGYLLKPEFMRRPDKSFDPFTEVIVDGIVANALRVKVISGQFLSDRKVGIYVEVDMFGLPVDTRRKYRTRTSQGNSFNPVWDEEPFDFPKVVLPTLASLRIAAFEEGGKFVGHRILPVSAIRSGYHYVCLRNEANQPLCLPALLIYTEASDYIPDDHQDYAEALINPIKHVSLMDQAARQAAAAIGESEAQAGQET
Assay: flow cytometry protein interaction assay

Kd: 20.5 nM
B1: Gαi/q chimera (murine Gαq with its N-terminal helix replaced with that of Gαi), biotinylated, AlF4-activated (other)
chain: MGCTLSAEDKAAVERSKMIDRNLREDGEKARRELKLLLLGTGESGKSTFIKQMRIIHGSGYSDEDKRGFTKLVYQNIFTAMQAMIRAMDTLKIPYKYEHNKAHAQLVREVDVEKVSAFENPYVDAIKSLWNDPGIQECYDRRREYQLSDSTKYYLNDLDRVADPSYLPTQQDVLRVRVPTTGIIEYPFDLQSVIFRMVDVGGQRSERRKWIHCFENVTSIMFLVALSEYDQVLVESDNENRMEESKALFRTIITYPWFQNSSVILFLNKKDLLEEKIMYSHLVDYFPEYDGPQRDAQAAREFILKMFVDLNPDSDKIIYSHFTCATDTENIRFVFAAVKDTILQLNLKEYNLV
modifications: biotinylated (sites not given)
